Test results reported in patent US20170082633A1 (WHITEHEAD INSTITUTE FOR BIOMEDICAL RESEARCH, published 2017).

B1: FLAG-LAMP1 (other)
chain: DYKDDDDKAMFMVKNGNGTACIMANFSAAFSVNYDTKSGPKNMTFDLPSDATVVLNRSSCGKENTSDPSLVIAFGRGHTLTLNFTRNATRYSVQLMSFVYNLSDTHLFPNASSKEIKTVESITDIRADIDKKYRCVSGTQVHMNNVTVTLHDATIQAYLSNSSFSRGETRCEQDRPSPTTAPPAPPSPSPSPVPKSPSVDKYNVSGTNGTCLLASMGLQLNLTYERKDNTTVTRLLNINPNKTSASGSCGAHLVTLELHSEGTTVLLFQFGMNASSSRFFLQGIQLNTILPDARDPAFKAANGSLRALQATVGNSYKCNAEEHVRVTKAFSVNIFKVWVQAFKVEGGQFGSVEECLLDENSMLIPIAVGGALAGLVLIVLIAYLVGRKRSHAGYQTI
notes: Control lysosomal membrane protein
B2: FLAG-SLC38A9.1 L74A (other)
single chain: MANMNSDSRHLGTSEVDHERDPGPMNIQFEPSDLRSKRPFCIEPTNIVNVNHVIQRVSDHASAMNKRIHYYSRATTPADKALIAPDHVVPAPEECYVYSPLGSAYKLQSYTEGYGKNTSLVTIFMIWNTMMGTSILSIPWGIKQAGFTTGMCVIILMGLLTLYCCYRVVKSRTMMFSLDTTSWEYPDVCRHYFGSFGQWSSLLFSLVSLIGAMIVYWVLMSNFLFNTGKFIFNFIHHINDTDTILSTNNSNPVICPSAGSGGHPDNSSMIFYANDTGAQQFEKWWDKSRTVPFYLVGLLLPLLNFKSPSFFSKFNILGTVSVLYLIFLVTFKAVRLGFHLEFHWFIPTEFFVPEIRFQFPQLTGVLTLAFFIHNCIITLLKNNKKQENNVRDLCIAYMLVTLTYLYIGVLVFASFPSPPLSKDCIEQNFLDNFPSSDTLSFIARIFLLFQMMTVYPLLGYLARVQLLGHIFGDIYPSIFHVLILNLIIVGAGVIMACFYPNIGGIIRYSGAACGLAFVFIYPSLIYIISLHQEERLTWPKLIFHVFIIILGVANLIVQFFM
B3: FLAG-SLC38A9.1 P85A (other)
single chain: MANMNSDSRHLGTSEVDHERDPGPMNIQFEPSDLRSKRPFCIEPTNIVNVNHVIQRVSDHASAMNKRIHYYSRLTTPADKALIAADHVVPAPEECYVYSPLGSAYKLQSYTEGYGKNTSLVTIFMIWNTMMGTSILSIPWGIKQAGFTTGMCVIILMGLLTLYCCYRVVKSRTMMFSLDTTSWEYPDVCRHYFGSFGQWSSLLFSLVSLIGAMIVYWVLMSNFLFNTGKFIFNFIHHINDTDTILSTNNSNPVICPSAGSGGHPDNSSMIFYANDTGAQQFEKWWDKSRTVPFYLVGLLLPLLNFKSPSFFSKFNILGTVSVLYLIFLVTFKAVRLGFHLEFHWFIPTEFFVPEIRFQFPQLTGVLTLAFFIHNCIITLLKNNKKQENNVRDLCIAYMLVTLTYLYIGVLVFASFPSPPLSKDCIEQNFLDNFPSSDTLSFIARIFLLFQMMTVYPLLGYLARVQLLGHIFGDIYPSIFHVLILNLIIVGAGVIMACFYPNIGGIIRYSGAACGLAFVFIYPSLIYIISLHQEERLTWPKLIFHVFIIILGVANLIVQFFM
notes: Full-length mutant
B4: FLAG-SLC38A9.1 P90A (other)
single chain: MANMNSDSRHLGTSEVDHERDPGPMNIQFEPSDLRSKRPFCIEPTNIVNVNHVIQRVSDHASAMNKRIHYYSRLTTPADKALIAPDHVVAAPEECYVYSPLGSAYKLQSYTEGYGKNTSLVTIFMIWNTMMGTSILSIPWGIKQAGFTTGMCVIILMGLLTLYCCYRVVKSRTMMFSLDTTSWEYPDVCRHYFGSFGQWSSLLFSLVSLIGAMIVYWVLMSNFLFNTGKFIFNFIHHINDTDTILSTNNSNPVICPSAGSGGHPDNSSMIFYANDTGAQQFEKWWDKSRTVPFYLVGLLLPLLNFKSPSFFSKFNILGTVSVLYLIFLVTFKAVRLGFHLEFHWFIPTEFFVPEIRFQFPQLTGVLTLAFFIHNCIITLLKNNKKQENNVRDLCIAYMLVTLTYLYIGVLVFASFPSPPLSKDCIEQNFLDNFPSSDTLSFIARIFLLFQMMTVYPLLGYLARVQLLGHIFGDIYPSIFHVLILNLIIVGAGVIMACFYPNIGGIIRYSGAACGLAFVFIYPSLIYIISLHQEERLTWPKLIFHVFIIILGVANLIVQFFM
notes: Full-length mutant
B5: FLAG-SLC38A9.1 Y71A (other)
single chain: MANMNSDSRHLGTSEVDHERDPGPMNIQFEPSDLRSKRPFCIEPTNIVNVNHVIQRVSDHASAMNKRIHYASRLTTPADKALIAPDHVVPAPEECYVYSPLGSAYKLQSYTEGYGKNTSLVTIFMIWNTMMGTSILSIPWGIKQAGFTTGMCVIILMGLLTLYCCYRVVKSRTMMFSLDTTSWEYPDVCRHYFGSFGQWSSLLFSLVSLIGAMIVYWVLMSNFLFNTGKFIFNFIHHINDTDTILSTNNSNPVICPSAGSGGHPDNSSMIFYANDTGAQQFEKWWDKSRTVPFYLVGLLLPLLNFKSPSFFSKFNILGTVSVLYLIFLVTFKAVRLGFHLEFHWFIPTEFFVPEIRFQFPQLTGVLTLAFFIHNCIITLLKNNKKQENNVRDLCIAYMLVTLTYLYIGVLVFASFPSPPLSKDCIEQNFLDNFPSSDTLSFIARIFLLFQMMTVYPLLGYLARVQLLGHIFGDIYPSIFHVLILNLIIVGAGVIMACFYPNIGGIIRYSGAACGLAFVFIYPSLIYIISLHQEERLTWPKLIFHVFIIILGVANLIVQFFM
notes: Full-length mutant
B6: FLAG-SLC38A9.2 (other)
chain: DYKDDDDKMNKRIHYYSRLTTPADKALIAPDHVVPAPEECYVYSPLGSAYKLQSYTEGYGKNTSLVTIFMIWNTMMGTSILSIPWGIKQAGFTTGMCVIILMGLLTLYCCYRVVKSRTMMFSLDTTSWEYPDVCRHYFGSFGQWSSLLFSLVSLIGAMIVYWVLMSNFLFNTGKFIFNFIHHINDTDTILSTNNSNPVICPSAGSGGHPDNSSMIFYANDTGAQQFEKWWDKSRTVPFYLVGLLLPLLNFKSPSFFSKFNILGTVSVLYLIFLVTFKAVRLGFHLEFHWFIPTEFFVPEIRFQFPQLTGVLTLAFFIHNCIITLLKNNKKQENNVRDLCIAYMLVTLTYLYIGVLVFASFPSPPLSKDCIEQNFLDNFPSSDTLSFIARIFLLFQMMTVYPLLGYLARVQLLGHIFGDIYPSIFHVLILNLIIVGAGVIMACFYPNIGGIIRYSGAACGLAFVFIYPSLIYIISLHQEERLTWPKLIFHVFIIILGVANLIVQFFM
notes: also called SLC38A9 isoform 2; isoform 2
B7: FLAG-SLC38A9.4 (other)
chain: DYKDDDDKLVTIFMIWNTMMGTSILSIPWGIKQAGFTTGMCVIILMGLLTLYCCYRVVKSRTMMFSLDTTSWEYPDVCRHYFGSFGQWSSLLFSLVSLIGAMIVYWVLMSNFLFNTGKFIFNFIHHINDTDTILSTNNSNPVICPSAGSGGHPDNSSMIFYANDTGAQQFEKWWDKSRTVPFYLVGLLLPLLNFKSPSFFSKFNILGTVSVLYLIFLVTFKAVRLGFHLEFHWFIPTEFFVPEIRFQFPQLTGVLTLAFFIHNCIITLLKNNKKQENNVRDLCIAYMLVTLTYLYIGVLVFASFPSPPLSKDCIEQNFLDNFPSSDTLSFIARIFLLFQMMTVYPLLGYLARVQLLGHIFGDIYPSIFHVLILNLIIVGAGVIMACFYPNIGGIIRYSGAACGLAFVFIYPSLIYIISLHQEERLTWPKLIFHVFIIILGVANLIVQFFM
notes: also called SLC38A9 isoform 4; isoform 4
B8: FLAG-SLC38A9.1 Δ110 (other)
chain: DYKDDDDKTEGYGKNTSLVTIFMIWNTMMGTSILSIPWGIKQAGFTTGMCVIILMGLLTLYCCYRVVKSRTMMFSLDTTSWEYPDVCRHYFGSFGQWSSLLFSLVSLIGAMIVYWVLMSNFLFNTGKFIFNFIHHINDTDTILSTNNSNPVICPSAGSGGHPDNSSMIFYANDTGAQQFEKWWDKSRTVPFYLVGLLLPLLNFKSPSFFSKFNILGTVSVLYLIFLVTFKAVRLGFHLEFHWFIPTEFFVPEIRFQFPQLTGVLTLAFFIHNCIITLLKNNKKQENNVRDLCIAYMLVTLTYLYIGVLVFASFPSPPLSKDCIEQNFLDNFPSSDTLSFIARIFLLFQMMTVYPLLGYLARVQLLGHIFGDIYPSIFHVLILNLIIVGAGVIMACFYPNIGGIIRYSGAACGLAFVFIYPSLIYIISLHQEERLTWPKLIFHVFIIILGVANLIVQFFM
notes: also called SLC38A9 Δ110

Key:
[1] = biological target: T1, endogenous RagC (UniProt Q9HB90 2-399); assay: FLAG IP from transfected HEK-293T cells, immunoblot
T1 construct: Detected by immunoblot in anti-FLAG immunoprecipitates; also called RagC GTPase
Description: (§1) HEK-293T cells were cultured in DMEM supplemented with 10% inactivated fetal bovine serum, penicillin (100 IU/mL), and streptomycin (100 μg/mL) and maintained at 37° C. and 5% CO₂. Two million HEK-293T cells were plated in 10 cm culture dishes.
(§2) Transfection mixes were taken up to a total of 5 μg of DNA using empty pRK5. HEK-293T cells stably expressing FLAG-tagged proteins were rinsed once with ice-cold PBS and lysed in ice-cold lysis buffer (40 mM HEPES pH 7.4, 1% Triton X-100, 10 mM β-glycerol phosphate, 10 mM pyrophosphate, 2.5 mM MgC12 and 1 tablet of EDTA-free protease inhibitor (Roche) per 25 ml buffer). The soluble fractions from cell lysates were isolated by centrifugation at 13,000 rpm for 10 min in a microcentrifuge. […] Immunoprecipitates were washed three times with lysis buffer containing 500 mM NaCl. Immunoprecipitated proteins were denatured by the addition of 50 μL of sample buffer and incubation at RT for 30 min. It is critical that the samples containing SLC38A9 are neither boiled nor frozen prior to resolution by SDS-PAGE and analysis by immunoblotting. A similar protocol was employed when preparing samples for mass spectrometry.

[2] = biological target: T2, endogenous p18 (UniProt Q6IAA8 2-161); assay: as above
T2 construct: Detected by immunoblot in anti-FLAG immunoprecipitates; also called LAMTOR1
Description: as §1, §2

[3] = biological target: T3, endogenous p14 (UniProt Q9Y2Q5 1-125); assay: as above
T3 construct: Detected by immunoblot in anti-FLAG immunoprecipitates; also called LAMTOR2
Description: as §1, §2

[4] = biological target: T4, endogenous RagA (UniProt Q7L523 1-313); assay: as above
T4 construct: Detected by immunoblot in anti-FLAG immunoprecipitates; also called RagA GTPase
Description: as §1, §2

[5] = biological target: endogenous Ragulator (UniProt Q6IAA8 2-161; Q9Y2Q5 1-125; Q9UHA4 1-124; Q0VGL1 1-99; O43504 1-91); assay: co-immunoprecipitation from HEK-293T cells, immunoblot
Description: as §2

[6] = biological target: co-expressed epitope tagged Ragulator proteins (UniProt Q6IAA8 2-161; Q9Y2Q5 1-125; Q9UHA4 1-124; Q0VGL1 1-99; O43504 1-91); assay: as above
Description: as §2

T1 sequence (Q9HB90 2-399 limits assumed): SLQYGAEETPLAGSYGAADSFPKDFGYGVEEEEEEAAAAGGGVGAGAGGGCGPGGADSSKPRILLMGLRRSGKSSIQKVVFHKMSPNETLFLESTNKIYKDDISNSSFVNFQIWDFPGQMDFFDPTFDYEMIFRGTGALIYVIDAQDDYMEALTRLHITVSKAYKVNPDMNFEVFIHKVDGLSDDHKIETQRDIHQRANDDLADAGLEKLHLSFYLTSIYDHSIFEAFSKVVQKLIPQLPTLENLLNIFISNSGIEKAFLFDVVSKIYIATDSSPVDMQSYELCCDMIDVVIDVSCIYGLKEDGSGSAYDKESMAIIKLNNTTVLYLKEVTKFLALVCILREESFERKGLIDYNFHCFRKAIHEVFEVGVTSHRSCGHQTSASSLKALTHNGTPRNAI
T4 sequence (Q7L523 whole entry): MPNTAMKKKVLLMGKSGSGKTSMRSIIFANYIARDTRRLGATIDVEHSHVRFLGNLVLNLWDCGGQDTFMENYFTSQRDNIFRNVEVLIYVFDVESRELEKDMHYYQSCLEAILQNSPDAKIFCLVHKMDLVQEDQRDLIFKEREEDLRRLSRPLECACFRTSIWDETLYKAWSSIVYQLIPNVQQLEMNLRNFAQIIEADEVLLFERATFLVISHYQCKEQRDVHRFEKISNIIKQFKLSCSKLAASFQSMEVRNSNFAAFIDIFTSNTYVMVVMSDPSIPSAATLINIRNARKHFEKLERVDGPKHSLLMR

Binder	binding result [1]	binding result [2]	binding result [3]	binding result [4]	binding result [5]	binding result [6]
B1	no binding	–	–	–	–	–
B2	no binding	no binding	no binding	no binding	–	–
B3	no binding	no binding	no binding	no binding	–	–
B4	no binding	no binding	no binding	no binding	–	–
B5	no binding	no binding	no binding	no binding	–	–
B6	–	–	–	–	no binding	no binding
B7	–	–	–	–	no binding	no binding
B8	–	–	–	–	no binding	no binding
